Data published in the supplement of paper PMC7877785.
± gives the uncertainty stated by the source.

Assay: self-splicing fitness, log relative to wild type (ln ratio); higher = more splicing; Tetrahymena group I intron in knt gene, E. coli kanamycin selection, DiMSum; sequences stand for … in CUCUCU…GGAGGGAAAAGUUAUCAGGCAUGCACCUGGUAGCUAGUCUUUAAACCAAUAGAUUGCAUCGGUUUAAAAGGCAAGACCGUCAAAUUGCGGGAAAGGGGUCAACAGCCGUUCAGUACCAAGUCUCAGGGGAAACUUUGAGAUGGCCUUGCAAAGGGUAUGGUAAUAAGCUGACGGACAUGGUCCUAACCACGCAGCCAAGUCCUAAGUCAACAGAUCUUCUGUUGAUAUGGAUGCAGUUCACAGACUAAAUGUCGGUCGGGGAAGAUGUAUUCUUCUCAUAAGAUAUAGUCGGACCUCUCCUUAAUGGGAGCUAGCGGAUGAAGUGAUGCAACACUGGAGCCGCUGGGAACUAAUUUGUAUGCGAAAGUAUAUUGAUUAGUUUUGGAGUACUCGUGGUCG
Procedure, shortened: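 Pooled colonies went to amplicon sequencing on an Illumina HiSeq 2500 after six replicate transformations. The plates were LB agar with 100 μg/mL carbenicillin, 50 μM IPTG and 0.2% rhamnose, with or without 25 μg/mL kanamycin, incubated overnight at 37°C or 30°C. The E. coli BL21(DE3) library had all eight P1ex-region intron nucleotides randomised, the intron placed in the knt kanamycin-resistance gene on pET-22b(+). DiMSum fitness is the error-weighted combination of replicate fold changes, kanamycin against none, normalised to wild type.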

Sequence | self-splicing fitness (ln) (30 °C) | self-splicing fitness (ln) (37 °C)
GCGAAGCAAUAUUACGGCGU | -2.68 ± 0.37 | -0.799 ± 0.46
GCGAAGCAAUAUUACGGCUA | 0.15 ± 0.15 | -0.618 ± 0.12
GCGAAGCAAUAUUACGGGAU | -3.58 ± 0.3 | -2.07 ± 0.26
GCGAAGCAAUAUUACGGGCC |  | -1.37 ± 0.46
GCGAAGCAAUAUUACGGGGA | -3.69 ± 0.23 | -3.12 ± 0.33
GCGAAGCAAUAUUACGGUUC | -3.23 ± 0.2 | -1.24 ± 0.18
GCGAAGCAAUAUUACGGUUU | -3.22 ± 0.13 | -1.62 ± 0.13
GCGAAGCAAUAUUACGUACC | -1.02 ± 0.17 | 0.269 ± 0.19
GCGAAGCAAUAUUACGUAGA | -3.57 ± 0.44 | -1.75 ± 0.37
GCGAAGCAAUAUUACGUUAA | -1.65 ± 0.18 | -1.88 ± 0.23
GCGCAGCAAUAUUACGAACA | -1.64 ± 0.12 | -1.32 ± 0.097
GCGCAGCAAUAUUACGCACC | -3.7 ± 0.2 | -2.41 ± 0.25
GCGCAGCAAUAUUACGCCCU |  | 0.00379 ± 0.44
GCGCAGCAAUAUUACGCCGA | -0.753 ± 0.49 | -1.27 ± 0.28
GCGCAGCAAUAUUACGCGAC | -1.77 ± 0.12 | -1.79 ± 0.18
GCGCAGCAAUAUUACGCGGC |  | -3.69 ± 0.37
GCGCAGCAAUAUUACGCGUA | -1.14 ± 0.082 | -1.39 ± 0.083
GCGCAGCAAUAUUACGCUGG | -2.1 ± 0.1 | -2.13 ± 0.16
GCGCAGCAAUAUUACGCUUU | -1.39 ± 0.068 | -0.38 ± 0.083
GCGCAGCAAUAUUACGGAUC | -0.0635 ± 0.068 | 0.419 ± 0.083
GCGCAGCAAUAUUACGGCGA | -0.0713 ± 0.075 | -0.173 ± 0.089
GCGCAGCAAUAUUACGGCUC | -0.438 ± 0.12 | 0.47 ± 0.15
GCGCAGCAAUAUUACGGGGA | -2.23 ± 0.14 | -0.687 ± 0.11
GCGCAGCAAUAUUACGGUGG | -1.74 ± 0.059 | -0.842 ± 0.08
GCGCAGCAAUAUUACGUAGC | -1.95 ± 0.11 | -0.709 ± 0.12

Sequence | self-splicing fitness (ln) (30 °C) | self-splicing fitness (ln) (37 °C)
GCGCAGCAAUAUUACGUAUG | -3.67 ± 0.23 | -1.8 ± 0.21
GCGCAGCAAUAUUACGUCAA | -2.46 ± 0.14 | -0.0917 ± 0.1
GCGCAGCAAUAUUACGUGGC | -1.81 ± 0.29 | -2.36 ± 0.29
GCGCAGCAAUAUUACGUUGG | -1.81 ± 0.06 | -1.76 ± 0.097
GCGCAGCAAUAUUACGUUUC | -1.35 ± 0.057 | -0.727 ± 0.074
GCGGAGCAAUAUUACGACGA | -0.227 ± 0.16 | -0.189 ± 0.14
GCGGAGCAAUAUUACGCAGC | -1.9 ± 0.35 | -2.35 ± 0.34
GCGGAGCAAUAUUACGCCCU | -2.95 ± 0.45 | 
GCGGAGCAAUAUUACGCGCG | -2.77 ± 0.34 | -2.83 ± 0.27
GCGGAGCAAUAUUACGCGUU | -2.26 ± 0.24 | -1.23 ± 0.22
GCGGAGCAAUAUUACGGAAA |  | -1.54 ± 0.46
GCGGAGCAAUAUUACGGUGA | -2.38 ± 0.46 | 
GCGGAGCAAUAUUACGUACG | -2.97 ± 0.28 | -2.71 ± 0.44
GCGGAGCAAUAUUACGUACU | -1.85 ± 0.21 | -1.46 ± 0.22
GCGGAGCAAUAUUACGUAUA |  | -2.2 ± 0.44
GCGGAGCAAUAUUACGUCGA | -2.59 ± 0.32 | -1.83 ± 0.24
GCGGAGCAAUAUUACGUGUG | -3.19 ± 0.17 | -2.77 ± 0.29
GCGGAGCAAUAUUACGUUAU | -3.7 ± 0.19 | -2.81 ± 0.15
GCGGAGCAAUAUUACGUUGC | -4.4 ± 0.42 | -2.78 ± 0.34
GCGUAGCAAUAUUACGAAUC | -1.05 ± 0.17 | -0.37 ± 0.2
GCGUAGCAAUAUUACGAAUU | -1.52 ± 0.1 | -0.549 ± 0.12
GCGUAGCAAUAUUACGACAA | -0.888 ± 0.12 | -0.789 ± 0.13
GCGUAGCAAUAUUACGAUAG | -2.2 ± 0.26 | -1.83 ± 0.34
GCGUAGCAAUAUUACGAUCA | -0.167 ± 0.14 | 0.0769 ± 0.14
GCGUAGCAAUAUUACGAUCU | -1.34 ± 0.17 | -0.0119 ± 0.18

Sequence | self-splicing fitness (ln) (30 °C) | self-splicing fitness (ln) (37 °C)
GCGUAGCAAUAUUACGAUGU | -2.18 ± 0.068 | -1.15 ± 0.096
GCGUAGCAAUAUUACGAUUU | 0.253 ± 0.088 | -0.282 ± 0.09
GCGUAGCAAUAUUACGCAAG | -3.32 ± 0.41 | 
GCGUAGCAAUAUUACGCCAC |  | -2.26 ± 0.29
GCGUAGCAAUAUUACGCCAG | -3.15 ± 0.41 | -2.32 ± 0.37
GCGUAGCAAUAUUACGCCGG | -2.21 ± 0.21 | -3.92 ± 0.42
GCGUAGCAAUAUUACGCGCA |  | -1.07 ± 0.35
GCGUAGCAAUAUUACGCGUU | -1.14 ± 0.19 | -1.55 ± 0.22
GCGUAGCAAUAUUACGGACU | -0.176 ± 0.13 | -0.78 ± 0.19
GCGUAGCAAUAUUACGGAGA | -2.63 ± 0.21 | -1.87 ± 0.23
GCGUAGCAAUAUUACGGAUG | -1.41 ± 0.16 | -1.98 ± 0.18
GCGUAGCAAUAUUACGGCAA | 0.755 ± 0.46 | -1.01 ± 0.27
GCGUAGCAAUAUUACGGCUU | -1.21 ± 0.11 | -0.0921 ± 0.14
GCGUAGCAAUAUUACGUAGA | -3.35 ± 0.19 | -2.88 ± 0.29
GCGUAGCAAUAUUACGUCUA | -1.06 ± 0.22 | -0.924 ± 0.15
GCUAAGCAAUAUUACGACAA | -1.43 ± 0.18 | -2.5 ± 0.2
GCUAAGCAAUAUUACGACAC | -0.804 ± 0.074 | 0.369 ± 0.11
GCUAAGCAAUAUUACGACGC | -1.52 ± 0.16 | -0.603 ± 0.18
GCUAAGCAAUAUUACGAGCU | -2.25 ± 0.33 | -0.165 ± 0.31
GCUAAGCAAUAUUACGAGGC | -1.85 ± 0.21 | -1.6 ± 0.33
GCUAAGCAAUAUUACGAGUA | -1.73 ± 0.18 | -1.31 ± 0.12
GCUAAGCAAUAUUACGAUAC | -1.9 ± 0.12 | -0.355 ± 0.11
GCUAAGCAAUAUUACGAUUG | -2.78 ± 0.11 | -1.17 ± 0.12
GCUAAGCAAUAUUACGCCUA | -1.55 ± 0.3 | -0.198 ± 0.2
GCUAAGCAAUAUUACGCGAG | -2.6 ± 0.13 | -1.18 ± 0.14

Sequence | self-splicing fitness (ln) (30 °C) | self-splicing fitness (ln) (37 °C)
GCUAAGCAAUAUUACGCUCG | -0.473 ± 0.094 | -0.832 ± 0.13
GCUAAGCAAUAUUACGCUCU | -1.11 ± 0.13 | 0.486 ± 0.15
GCUAAGCAAUAUUACGCUUA | -1.74 ± 0.26 | -3.17 ± 0.43
GCUAAGCAAUAUUACGGACU | -1.66 ± 0.12 | -0.74 ± 0.14
GCUAAGCAAUAUUACGGAGC |  | -2.4 ± 0.34
GCUAAGCAAUAUUACGUAGC | -4.22 ± 0.26 | -2.16 ± 0.18
GCUAAGCAAUAUUACGUAUG | -2.2 ± 0.1 | -1.12 ± 0.14
GCUAAGCAAUAUUACGUGUC | -2.75 ± 0.13 | -2.22 ± 0.14
GCUAAGCAAUAUUACGUUAU | -1.7 ± 0.072 | -1.48 ± 0.12
GCUAAGCAAUAUUACGUUCU | -1.04 ± 0.052 | -0.467 ± 0.066
GCUCAGCAAUAUUACGAAAG | -1.71 ± 0.11 | -1.93 ± 0.13
GCUCAGCAAUAUUACGACCA | -0.232 ± 0.18 | -0.532 ± 0.15
GCUCAGCAAUAUUACGACCC | -0.644 ± 0.14 | 0.378 ± 0.19
GCUCAGCAAUAUUACGAGAA | -0.468 ± 0.12 | 0.0758 ± 0.099
GCUCAGCAAUAUUACGAUGC | -1.47 ± 0.12 | -0.954 ± 0.15
GCUCAGCAAUAUUACGAUUC | -0.0882 ± 0.054 | 0.832 ± 0.075
GCUCAGCAAUAUUACGCAAC | -1.28 ± 0.16 | -1.07 ± 0.2
GCUCAGCAAUAUUACGCAUU | -0.452 ± 0.078 | -0.0385 ± 0.1
GCUCAGCAAUAUUACGCCCC | 0.441 ± 0.32 | -0.222 ± 0.41
GCUCAGCAAUAUUACGCCUA | -0.718 ± 0.23 | -0.514 ± 0.22
GCUCAGCAAUAUUACGCGCU | -1.42 ± 0.11 | -0.545 ± 0.14
GCUCAGCAAUAUUACGGAAU | -0.424 ± 0.083 | 0.224 ± 0.12
GCUCAGCAAUAUUACGGCAC | -1.11 ± 0.21 | -0.084 ± 0.21
